B1: Hsp26 (natural protein, S. cerevisiae, UniProt P15992 1-214, looked up)
chain: MSFNSPFFDFFDNINNEVDAFNRLLGEGGLRGYAPRRQLANTPAKDSTGKEVARPNNYAGALYDPRDETLDDWFDNDLSLFPSGFGFPRSVAVPVDILDHDNNYELKVVVPGVKSKKDIDIEYHQNKNQILVSGEIPSTLNEESKDKVKVKESSSGKFKRVITLPDYPGVDADNIKADYANGVLTLTVPKLKPQKDGKNHVKKIEVSSQESWGN
notes: Hsp26, small heat shock protein of S. cerevisiae; also called sHsp; small heat shock protein Hsp26; source: E. coli (derivative of MC4100), solubilised from the pellet in 8 M urea, purified (Ni-IDA, Sephacryl S-300); not shown: His6-Smt3, N-terminal, cleaved
B2: His6-MDH (malate dehydrogenase) (enzyme)
chain: AKVAVLGASGGIGQPLSLLLKNSPLVSRLTLYDIAHTPGVAADLSHIETRATVKGYLGPEQLPDCLKGCDVVVIPAGVPRKPGMTRDDLFNTNATIVATLTAACAQHCPDAMICIISNPVNSTIPITAEVFKKHGVYNPNKIFGVTTLDIVRANAFVAELKGLDPARVSVPVIGGHAGKTIIPLISQCTPKVDFPQDQLSTLTGRIQEAGTEVVKAKAGAGSATLSMAYAGARFVFSLVDAMNGKEGVVECSFVKSQETDCPYFSTPLLLGKKGIEKNLGIGKISPFEEKMIAEAIPELKASIKKGEEFVKNMK
notes: malate dehydrogenase (MDH), thermolabile model substrate; The aggregation, centrifugation and SEC methods say only 'MDH'; also called His6-tagged MDH; source: E. coli (derivative of MC4100), purified (Ni-IDA)
B3: MDH labelled with 7-diethylcoumarin-3-carboxylic acid (enzyme, UniProt P00346 25-338, looked up)
chain: B2 chain
modifications: 7-diethylcoumarin-3-carboxylic acid (succinimidyl ester labelling, sites not stated)
notes: malate dehydrogenase (MDH) purchased from Roche; also called labelled MDH; MDH (Roche); source: bought: Roche; labelled with 7-diethylcoumarin-3-carboxylic acid succinimidyl ester

How the values were obtained:
Conditions in all cases: both partners purified
[1] = molecular target: B3; experiment: FRET or BRET; MDH–YFP and coumarin-labelled MDH (each 0.25 μM) mixed in preheated buffer C at 47 °C (heat-induced co-aggregation); signal at 527 nm; with or without Hsp26 or Hsp42
[2] = molecular target: B2; experiment: co-sedimentation; MDH (0.5 μM) denatured 60 min at 41 °C in buffer C with or without sHsps (0.1–2.5 μM); 10–50% glycerol gradient, 40,000 r.p.m., 1 h, 4 °C, and supernatant-pellet centrifugation; fractions by SDS-PAGE and western blot
Hsp42 [3] = molecular target: T1, Hsp42 (S. cerevisiae, UniProt Q12329 1-375); experiment: cross-linking; DSS cross-linking of Hsp42/MDH complexes; MDH cross-link pattern by western blot
T1 construct: Hsp42, small heat shock protein of S. cerevisiae; Cloned into pMal-c2E; the enterokinase site was changed to a PreScission site, so residues of that site may remain at the N-terminus; also called sHsp; small heat shock protein Hsp42; source: E. coli ArcticExpress, purified (amylose resin, PreScission cleavage, Sephacryl S-300); not shown: MBP, N-terminal, cleaved

Hsp42 [4] = molecular target: T1, Hsp42; experiment: FRET or BRET; MDH–YFP and coumarin-labelled MDH (each 0.25 μM) mixed in preheated buffer C at 47 °C (heat-induced co-aggregation); signal at 527 nm; with or without Hsp26 or Hsp42

T1 sequence (Q12329 whole entry): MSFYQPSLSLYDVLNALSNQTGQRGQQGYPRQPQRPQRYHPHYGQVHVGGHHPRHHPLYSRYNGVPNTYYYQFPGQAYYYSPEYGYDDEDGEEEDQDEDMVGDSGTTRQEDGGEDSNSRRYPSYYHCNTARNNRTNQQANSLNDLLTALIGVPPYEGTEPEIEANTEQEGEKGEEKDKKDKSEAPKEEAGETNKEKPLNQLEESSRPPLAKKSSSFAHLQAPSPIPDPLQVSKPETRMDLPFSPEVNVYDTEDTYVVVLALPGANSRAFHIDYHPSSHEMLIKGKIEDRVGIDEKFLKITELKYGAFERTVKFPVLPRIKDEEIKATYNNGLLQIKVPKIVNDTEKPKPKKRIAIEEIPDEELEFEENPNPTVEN

Binder: B1
binding result [1]: binds
binding result [2]: binds

Binder: B2
binding result (Hsp42 [3]): binds

Binder: B3
binding result (Hsp42 [4]): binds

Source: paper PMC5141385, “Small heat shock proteins sequester misfolding proteins in near-native conformation for cellular protection and efficient refolding” (Nature Communications, 2016)
